Data reported in paper PMC5651189.

Molecular target: PKA regulatory subunit RIα/β (human (endogenous in SK-Br-3)) (UniProt P10644)
Test: proximity ligation

PKA regulatory subunit RIα/β (human (endogenous in SK-Br-3)), sequence (P10644 whole entry): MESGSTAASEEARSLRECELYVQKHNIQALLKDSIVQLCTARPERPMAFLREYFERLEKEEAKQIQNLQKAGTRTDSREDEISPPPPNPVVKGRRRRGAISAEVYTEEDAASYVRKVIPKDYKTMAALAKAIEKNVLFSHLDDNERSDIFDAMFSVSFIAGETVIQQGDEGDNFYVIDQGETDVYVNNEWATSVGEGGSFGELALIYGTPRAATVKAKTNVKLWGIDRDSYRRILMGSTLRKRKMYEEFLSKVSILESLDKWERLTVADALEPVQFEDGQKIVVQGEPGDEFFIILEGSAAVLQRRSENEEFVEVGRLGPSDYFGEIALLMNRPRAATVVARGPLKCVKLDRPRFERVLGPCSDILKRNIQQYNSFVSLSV

fold CICF in SK.tDp^T39A against SK.empty cells	fold CICF in SK.dDp against SK.empty and SK.tDp cells	Binder
3 fold	–	t-Darpp T39A phosphorylation mutant (natural protein) AYAPPSLKAVQRIAESHLQSISNLNENQASEEEDELGELRELGYPREEDEEEEEDDEEEEEEEDSQAEVLKVIRQSAGQKTTCGQGLEGPWERPPPLDESERDGGSEDQVEDPALSEPGEEPQRPSPSEPGT
–	4 fold	Darpp-32 (dopamine- and cAMP-regulated phosphoprotein of 32 kDa) (natural protein) MDPKDRKKIQFSVPAPPSQLDPRQVEMIRRRRPTPAMLFRLSEHSSPEEEASPHQRASGEGHHLKSKRPNPCAYTPPSLKAVQRIAESHLQSISNLNENQASEEEDELGELRELGYPREEDEEEEEDDEEEEEEEDSQAEVLKVIRQSAGQKTTCGQGLEGPWERPPPLDESERDGGSEDQVEDPALSEPGEEPQRPSPSEPGT
